Measurements from patent US20120041175A1 (ROCKEFELLER UNIVERISTY, published 2012).

B1: Beclin 1-EGFP (fusion of mouse Beclin 1 and EGFP at the C-terminus) (other)
chain: MEGSKASSSTMQVSFVCQRCSQPLKLDTSFKILDRVTIQELTAPLLTTAQAKPGETQEEEANSGEEPFIETRQDGVSRRFIPPARMMSTESANSFTLIGEASDGGTMENLSRRLKVTGDLFDIMSGQTDVDHPLCEECTDTLLDQLDTQLNVTENECQNYKRCLEILEQMNEDDSEQLQRELKELALEEERLIQELEDVEKNRKVVAENLEKVQAEAERLDQEEAQYQREYSEFKRQQLELDDELKSVENQVRYAQIQLDKLKKTNVFNATFHIWHSGQFGTINNFRLGRLPSVPVEWNEINAAWGQTVLLLHALANKMGLKFQRYRLVPYGNHSYLESLTDKSKELPLYCSGGLRFFWDNKFDHAMVAFLDCVQQFKEEVEKGETRFCLPYRMDVEKGKIEDTGGSGGSYSIKTQFNSEEQWTKALKFMLTNLKWGLAWVSSQFYNK
notes: Expressed from a BAC transgene in beclin 1-/-; also called Beclin 1-GFP; not shown: EGFP inserted at the C-terminus in place of the stop codon
B2: Bif1 (endogenous, mouse tissue) (other, UniProt Q9JK48 1-365, looked up)
chain: MNIMDFNVKKLAADAGTFLSRAVQFTEEKLGQAEKTELDAHLENLLSKAECTKIWTEKIMKQTEVLLQPNPNARIEEFVYEKLDRKAPSRINNPELLGQYMIDAGTEFGPGTAYGNALIKCGETQKRIGTADRELIQTSALNFLTPLRNFIEGDYKTIAKERKLLQNKRLDLDAAKTRLKKAKAAETKSSSEQELRITQSEFDRQAEITRLLLEGISSTHAHHLRCLNDFVEAQMTYYAQCYQYMLDLQKQLGSFPSNYLSNNNQTSGTPVPYALSNAIGPSAQASTGSLVITCPSNLNDLKESSNNRKARVLYDYDAANSTELSLLADEVITVFSVVGMDSDWLMGERGNQKGKVPITYLELLN

Key:
[1] = target: nPIST (endogenous, mouse tissue) (mouse, UniProt Q8BH60 2-463); test: anti-GFP affinity isolation of Beclin 1-EGFP from mouse tissues, mass spectrometry
Protocol: (§1) Rubicon contains an N-terminal RUN (for RPIP8, UNC-14 and NESCA) domain, a C-terminal cysteine-rich domain, and a CCD domain in the central of the protein sequence. (D and E) HEK 293T cells were transfected with either N-terminal FLAG-tagged […] or C-terminal EGFP-tagged (E) ATG14L or Rubicon. Immunoprecipitation was performed with anti-FLAG (D) or anti-GFP antibody (E). The endogenous Beclin 1 co-immunoprecipitated were detected by Western blot analysis using anti-Beclin 1 antibody. WCL represents whole cell lysate, and IP represents immunoprecipitated.
(§2) Affinity purification of Beclin 1 interacting proteins and mass spectrometric identification of these proteins were carried out as described in Wang et al. (2006), with slight modification. In brief, tissue extracts were obtained from both beclin 1^{+/-} and beclin 1^{-/-}; beclin 1-GFP/+ mice at 4 month of age by homogenizing 2 brains or 1 liver with a motor-driven homogenizer (speed 2.5, 12 strokes) in 4 ml buffer containing 0.32 M sucrose, 1 mM NaHCO₃, 20 mM HEPEs/pH 7.4, 1 mM MgCl₂, 0.25 mM CaCl₂, EDTA-free protease inhibitor cocktail, 200 μg/mL PMSF, pepstatin 4 μg/mL, and DNase I. The tissue extracts were centrifuged at 1,400 g for 10 minutes and the pellets were homogenized again in 4 ml buffer for 8 strokes and centrifuged again. Supernatants from the two homogenization steps were pooled, centrifuged at 750 g for 10 minutes. […]

[2] = target: B1; test: as above
Protocol: as §1, §2

Row | binding result [1] | binding result [2] | Binder
1 | no binding |  | B1
2 |  | no binding | B2
